{"source": "paper PMC9784774", "about": "(2022)", "molecular_target": "T1, recombinant gH/gL/UL128/UL130/UL131A pentamer (wild type) (human cytomegalovirus | human …)", "T1 chain 1": "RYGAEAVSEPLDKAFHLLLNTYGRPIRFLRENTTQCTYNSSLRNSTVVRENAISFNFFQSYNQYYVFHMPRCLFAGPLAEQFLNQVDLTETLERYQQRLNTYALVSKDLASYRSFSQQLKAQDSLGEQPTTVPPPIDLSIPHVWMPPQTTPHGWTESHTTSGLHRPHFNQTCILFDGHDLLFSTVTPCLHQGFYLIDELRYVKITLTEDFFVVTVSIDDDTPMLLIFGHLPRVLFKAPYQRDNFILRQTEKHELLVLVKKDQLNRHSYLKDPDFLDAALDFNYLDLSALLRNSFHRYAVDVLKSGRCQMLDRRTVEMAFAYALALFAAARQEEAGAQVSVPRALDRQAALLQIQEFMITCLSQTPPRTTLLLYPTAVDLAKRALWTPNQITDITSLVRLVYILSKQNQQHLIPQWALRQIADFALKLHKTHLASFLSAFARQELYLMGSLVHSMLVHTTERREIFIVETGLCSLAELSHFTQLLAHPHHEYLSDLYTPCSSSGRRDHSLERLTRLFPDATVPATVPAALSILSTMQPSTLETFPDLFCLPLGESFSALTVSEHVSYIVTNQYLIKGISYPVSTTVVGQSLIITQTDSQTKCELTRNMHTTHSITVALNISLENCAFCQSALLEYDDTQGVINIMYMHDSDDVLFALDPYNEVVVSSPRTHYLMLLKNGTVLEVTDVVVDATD", "T1 chain 2": "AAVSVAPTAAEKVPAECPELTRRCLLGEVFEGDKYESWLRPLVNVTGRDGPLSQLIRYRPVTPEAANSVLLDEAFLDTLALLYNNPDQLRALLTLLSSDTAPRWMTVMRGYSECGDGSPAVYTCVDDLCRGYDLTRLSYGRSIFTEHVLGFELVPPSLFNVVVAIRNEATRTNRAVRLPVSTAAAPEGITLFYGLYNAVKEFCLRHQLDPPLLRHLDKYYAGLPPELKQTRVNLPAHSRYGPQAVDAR", "T1 chain 3": "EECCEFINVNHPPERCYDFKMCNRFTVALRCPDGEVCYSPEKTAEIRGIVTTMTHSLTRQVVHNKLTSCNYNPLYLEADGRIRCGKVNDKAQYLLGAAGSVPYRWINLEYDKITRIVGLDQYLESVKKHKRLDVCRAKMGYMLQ", "T1 chain 4": "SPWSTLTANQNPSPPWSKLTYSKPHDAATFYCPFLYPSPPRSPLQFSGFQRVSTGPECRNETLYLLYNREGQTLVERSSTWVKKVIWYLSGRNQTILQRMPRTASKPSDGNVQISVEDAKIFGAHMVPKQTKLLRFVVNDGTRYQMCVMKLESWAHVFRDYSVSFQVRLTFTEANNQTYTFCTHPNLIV", "T1 chain 5": "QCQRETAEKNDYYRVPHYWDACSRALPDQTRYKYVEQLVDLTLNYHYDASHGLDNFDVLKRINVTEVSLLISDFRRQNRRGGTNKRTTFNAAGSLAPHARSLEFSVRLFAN", "test": "SPR", "data": [{"binder": "MAb 9I6 (antibody, V domains shown) VH: EVQLVQSGAEVKKPGESLKISCRESGDTFPAYWIAWVRQMPGKGLEWMGIIYPIDSETTYSPSFQGQVTISADKSINTAYLQWSSLKASDSAIYYCARGTSTGLREAFHIWGQGTMVTVSS VL: DVVMTQSPLSLAVTLGQPAYISCRSSQSLGYSDGNTYLNWFQQRPGQSPRRLIYEVSNRDSGVPDRFSGSGSGTDFTLKISRVEAEDVGTYYCMQGTHWPPMCSFGQGTKLEIK", "values": [{"measurement": "koff", "result": 0.000151, "unit": "s⁻¹"}]}]}
